The values below come from paper PMC7810988 (2019).

The assay deals with T1, OsSPX4^1–321 (rice, UniProt Q10B79 1-320).
T1 chain: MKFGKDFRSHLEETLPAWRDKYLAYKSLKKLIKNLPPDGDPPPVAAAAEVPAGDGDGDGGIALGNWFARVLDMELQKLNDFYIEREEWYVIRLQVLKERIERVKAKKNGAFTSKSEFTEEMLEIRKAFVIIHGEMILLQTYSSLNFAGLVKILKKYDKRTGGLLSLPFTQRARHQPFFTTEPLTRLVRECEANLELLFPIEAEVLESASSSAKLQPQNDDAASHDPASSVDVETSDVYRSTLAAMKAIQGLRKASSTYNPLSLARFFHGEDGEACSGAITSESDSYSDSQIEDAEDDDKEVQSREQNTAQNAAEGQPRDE
Put plainly: ITC; 5PP-InsP5 (InsP7) 100 uM. Background: ITC needs no label: the signal is the heat of the interaction.

B1: full-length OsPHR2 (OsPHR2^1-426, wild type) (natural protein)
chain: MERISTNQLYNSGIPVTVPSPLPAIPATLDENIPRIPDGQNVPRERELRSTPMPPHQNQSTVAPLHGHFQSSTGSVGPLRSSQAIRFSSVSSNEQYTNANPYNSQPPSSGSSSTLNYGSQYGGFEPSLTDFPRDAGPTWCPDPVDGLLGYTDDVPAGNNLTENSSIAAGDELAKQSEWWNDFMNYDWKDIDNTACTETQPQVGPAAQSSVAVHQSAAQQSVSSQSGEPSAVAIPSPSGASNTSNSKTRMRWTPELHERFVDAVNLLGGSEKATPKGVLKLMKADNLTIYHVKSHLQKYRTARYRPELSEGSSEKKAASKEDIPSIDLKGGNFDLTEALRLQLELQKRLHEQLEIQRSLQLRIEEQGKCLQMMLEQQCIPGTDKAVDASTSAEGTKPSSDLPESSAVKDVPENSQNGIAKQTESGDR
What is called Kd is the equilibrium constant for the complex coming apart. A low value points to a tighter complex. B1: the Kd worked out at 3.05 µM.
